US20250326839A1, “TREATMENT OF DISEASES RELATED TO COLONY-STIMULATING FACTOR 1 RECEPTOR DYSFUNCTION USING TREM2 AGONISTS” (Vigil Neuroscience, Inc., priority 2020, published 2025)

Key:
[1] = system: human monocyte-derived macrophages (hMDMs); experiment: Example 1E: CSF1 withdrawal, confluence and Caspase 3/7 apoptosis (Incucyte); type: cell-based; conditions: CSF1 withdrawal (0 ng/mL), plates coated with 0.4, 2.0 or 10 μg/mL, 72 hours
Protocol: PBMCs were isolated from fresh, whole blood from human donors. CD14+ monocytes were isolated using positive magnetic selection (Miltenyi). Cells were plated in UpCell® low-adhesion plates and incubated in culture media with 50 ng/mL CSF1 for 48 hours. After 48 hours, cells were non-enzymatically harvested and plated at 25,000 cells per well in cell culture plates coated with 0.4, 2.0, or 10 μg/mL of either Ab-3 or a matching isotype control, and incubated in a humidified incubator at 37C, 5% CO2 for 72 hours. Caspase-3/7 Green reporter dye was included in the some wells to determine the number of apoptotic events over time. During incubation, cells were monitored every two hours using an Incucyte S3® analyzer (2 fields of view per well, imaged at 10×). Confluence levels were determined using the Incucyte® software, and normalized to CSF1 at 50 ng/mL, which was considered as normal culture conditions. Caspase 3/7 positive counts per field of view were calculated using Incucyte® software. Significance was determined by Ordinary One-Way ANOVA, using multiple comparisons in Graphpad Prism.

[2] = system: human monocyte-derived macrophages (hMDMs); experiment: Example 2E: CSF1R inhibition by PLX5622, confluence and morphology (Incucyte); type: cell-based; conditions: plates coated with 10 μg/mL, plus PLX5622 1 μM, 96 hours
Protocol: PBMCs were isolated from fresh, whole blood from human donors. CD14+ monocytes were isolated using positive magnetic selection (Miltenyi). Cells were plated in UpCell® low-adhesion plates and incubated in culture media with 50 ng/mL CSF1 for 48 hours. After 48 hours, cells were non-enzymatically harvested and plated at 25,000 cells per well in cell culture plates coated with 10 μg/mL of either Ab-3 or a matching isotype control. PLX5622 was immediately added to the cultures to 1 μM, and plates were incubated in a humidified incubator at 37 C, 5% CO2 for an additional 96 hours. During incubation, cells were monitored every two hours using an Incucyte S3® analyzer (2 fields of view per well, imaged at 10×). Confluence was measured using built in S3 software, while area and eccentricity (cell shape) were measured using the built in “Cell By Cell” analysis software. Significance was determined by Student's T-test, two-tailed in Graphpad Prism.

B1: Ab-3: murinized version of a human TREM2 agonist antibody, engineered variant of 13E7; HC SEQ ID NO:2779, LC SEQ ID NO:2780 (antibody)
heavy: EVQLVQSGAEVKKPGESLKISCKGSGYSFTSYWIGWVRQMPGKGLEWMGIIYPGDADARYSPSFQGQVTISADKSISTAYLQWSSLKASDTAMYFCARRRQGIFGDALDFWGQGTLVTVSSAKTTPPSVYPLAPGSAAQTNSMVTLGCLVKGYFPEPVTVTWNSGSLSSGVHTFPAVLQSDLYTLSSSVTVPSSTWPSETVTCNVAHPASSTKVDKKIVPRDCGCKPCICTVPEVSSVFIFPPKPKDVLTITLTPKVTCVVVDISKDDPEVQFSWFVDDVEVHTAQTQPREEQFGSTFRSVSELPIMHQDWLNGKEFKCRVNSAAFPAPIEKTISKTKGRPKAPQVYTIPPPKEQMAKDKVSLTCMITDFFPEDITVEWQWNGQPAENYKNTQPIMDTDGSYFVYSKLNVQKSNWEAGNTFTCSVLHEGLHNHHTEKSLSHSPGK
light: EIVMTQSPATLSVSPGERATLSCRASQSVSSNLAWFQQKPGQAPRLLIYGASTRATGIPARFSGSGSGTEFTLTISSLQPEDFAVYYCLQDNNFPPTFGQGTKVDIKRADAAPTVSIFPPSSEQLTSGGASVVCFLNNFYPKDINVKWKIDGSERQNGVLNSWTDQDSKDSTYSMSSTLTLTKDEYERHNSYTCEATHKTSTSPIVKSFNRNEC
modifications: REGION 1..445: note = Murinized Ab-3 HC; REGION 1..214: note = Murinized Ab-3 LC
confluence ([1]; donors 16 and 26, FIGS. 1 and 2): increased confluence levels to that of high CSF1 treated cells
Caspase 3/7 levels (apoptosis) ([1]; donors 16 and 26, FIGS. 3 and 4): reduced Caspase 3/7 levels to that of high CSF1 treated cells
confluence ([2]; FIG. 5): restoration of confluence to levels similar to that of vehicle alone
cells with “high area, high eccentricity” (ramified) ([2]; FIG. 6): restoration of “high area, high eccentricity” to levels higher than that of vehicle alone
